Experimental data: patent publication CN115368447A (HEFEI TIANGANG IMMUNOLOGY PHARMACEUTICAL CO LTD, dated 2022)

Key:
[1] = target: T1, 4-1BB蛋白 (SEQ ID NO:27), expressed on CHO-K1-4-1BB cells and Jurkat-NFAT-lucia-4-1BB cells (Homo sapiens (Human), UniProt Q07011 24-255); experiment: flow cytometry on CHO-K1-4-1BB cells, Alexa-647 anti-human Fc
T1 construct: expressed by lentiviral transduction; also called CHO-K1-4-1BB细胞; Jurkat-NFAT-lucia-4-1BB细胞

[2] = target: T2, Nectin-4蛋白 (SEQ ID NO:29), expressed on CHO-K1-Nectin-4 cells and A375-Nectin-4 cells (Homo sapiens (Human), UniProt Q96NY8 32-510); experiment: flow cytometry on CHO-K1-Nectin-4 cells, Alexa-647 anti-human Fc
T2 construct: expressed by lentiviral transduction; also called CHO-K1-Nectin-4细胞; A375-Nectin-4细胞
T2 sequence: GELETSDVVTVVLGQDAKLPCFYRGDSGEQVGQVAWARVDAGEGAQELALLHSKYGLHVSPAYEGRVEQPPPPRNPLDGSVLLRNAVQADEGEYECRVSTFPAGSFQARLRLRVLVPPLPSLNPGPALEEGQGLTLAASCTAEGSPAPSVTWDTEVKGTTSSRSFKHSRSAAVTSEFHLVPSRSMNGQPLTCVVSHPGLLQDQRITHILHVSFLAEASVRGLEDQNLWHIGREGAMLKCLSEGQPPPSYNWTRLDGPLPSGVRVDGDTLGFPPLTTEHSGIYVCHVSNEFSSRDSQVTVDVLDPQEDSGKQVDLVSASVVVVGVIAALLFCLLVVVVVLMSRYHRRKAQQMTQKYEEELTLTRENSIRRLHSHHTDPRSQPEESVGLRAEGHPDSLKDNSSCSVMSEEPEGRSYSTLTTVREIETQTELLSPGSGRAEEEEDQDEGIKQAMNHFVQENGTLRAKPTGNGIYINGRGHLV

[3] = target: T3, 4-1BB-strep tagII蛋白 (Homo sapiens (Human), UniProt Q07011 24-186); experiment: ELISA, 4-1BB-strep tagII coated at 2 ug/mL, HRP anti-human IgG, OD450
T3 construct: Soluble 4-1BB with C-terminal strep tag II, made in house; Coated on the ELISA plate at 2 ug/mL; also called 4-1BB蛋白

Measured: binding result

T1 sequence (Q07011 24-255 limits assumed): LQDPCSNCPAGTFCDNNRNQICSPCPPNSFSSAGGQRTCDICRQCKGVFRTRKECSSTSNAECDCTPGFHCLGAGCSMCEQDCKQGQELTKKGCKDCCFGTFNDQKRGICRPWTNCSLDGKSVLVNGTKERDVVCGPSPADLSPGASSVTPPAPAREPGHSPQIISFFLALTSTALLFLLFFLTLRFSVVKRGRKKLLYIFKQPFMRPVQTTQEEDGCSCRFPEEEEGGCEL

B1: 抗体4-1BB×Nectin-4 (bispecific antibody, human IgG1, kappa, L234A L235A)
scFv: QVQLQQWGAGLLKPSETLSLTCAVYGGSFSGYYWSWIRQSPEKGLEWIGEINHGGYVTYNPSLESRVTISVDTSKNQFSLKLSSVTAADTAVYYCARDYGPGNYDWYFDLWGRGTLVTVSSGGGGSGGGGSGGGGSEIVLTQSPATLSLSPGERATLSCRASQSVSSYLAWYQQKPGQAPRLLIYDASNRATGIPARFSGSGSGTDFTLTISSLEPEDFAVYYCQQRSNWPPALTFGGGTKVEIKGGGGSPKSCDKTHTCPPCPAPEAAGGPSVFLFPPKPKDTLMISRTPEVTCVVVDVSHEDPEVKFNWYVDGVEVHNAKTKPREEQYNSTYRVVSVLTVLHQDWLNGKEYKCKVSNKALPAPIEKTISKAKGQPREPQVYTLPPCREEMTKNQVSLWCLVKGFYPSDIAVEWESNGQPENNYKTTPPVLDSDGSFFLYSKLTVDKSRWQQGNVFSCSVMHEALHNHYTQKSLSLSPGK
heavy: EVQLVESGGGLVQPGGSLRLSCAASGFTFSSYNMNWVRQAPGKGLEWVSYISSSSSTIYYADSVKGRFTISRDNAKNSLSLQMNSLRDEDTAVYYCARAYYYGMDVWGQGTTVTVSSASTKGPSVFPLAPSSKSTSGGTAALGCLVKDYFPEPVTVSWNSGALTSGVHTFPAVLQSSGLYSLSSVVTVPSSSLGTQTYICNVNHKPSNTKVDKKVEPKSCDKTHTCPPCPAPEAAGGPSVFLFPPKPKDTLMISRTPEVTCVVVDVSHEDPEVKFNWYVDGVEVHNAKTKPREEQYNSTYRVVSVLTVLHQDWLNGKEYKCKVSNKALPAPIEKTISKAKGQPREPQVCTLPPSREEMTKNQVSLSCAVKGFYPSDIAVEWESNGQPENNYKTTPPVLDSDGSFFLVSKLTVDKSRWQQGNVFSCSVMHEALHNHYTQKSLSLSPGK
light: DIQMTQSPSSVSASVGDRVTITCRASQGISGWLAWYQQKPGKAPKFLIYAASTLQSGVPSRFSGSGSGTDFTLTISSLQPEDFATYYCQQANSFPPTFGGGTKVEIKRTVAAPSVFIFPPSDEQLKSGTASVVCLLNNFYPREAKVQWKVDNALQSGNSQESVTEQDSKDSTYSLSSTLTLSKADYEKHKVYACEVTHQGLSSPVTKSFNRGEC
notes: Three chains: anti-4-1BB scFv-Fc (knob); human IgG1 Fc with L234A/L235A already contained in the entries; Produced in ExpiCHO, Protein A purified; also called 4-1BB×Nectin-4抗体; 4-1BB×Nectin-4双特异抗体
binds: [1] | [2] | [3]
